Measurements published in patent publication US20240336696A1 (PXRADIA MAB TECHNOLOGIES, published 2024).

Target: T1, CD20 on human B-cell lines (JOK-1, Raji, Ramos) (human, UniProt P11836 1-297)
T1 sequence (looked up): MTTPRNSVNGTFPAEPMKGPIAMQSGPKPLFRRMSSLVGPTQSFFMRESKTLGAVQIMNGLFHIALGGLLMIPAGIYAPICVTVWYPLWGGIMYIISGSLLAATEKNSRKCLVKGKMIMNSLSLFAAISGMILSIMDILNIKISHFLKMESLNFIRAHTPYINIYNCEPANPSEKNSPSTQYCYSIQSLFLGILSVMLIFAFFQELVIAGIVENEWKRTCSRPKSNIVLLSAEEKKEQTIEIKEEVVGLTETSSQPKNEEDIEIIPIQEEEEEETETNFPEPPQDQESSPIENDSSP
Assay: cell-based or functional assay

percent of apoptotic cells against chRituximab, Raji cells, 5 µg/mL: 2.5 fold
B1: chRituximab-HD (chimeric HD antibody identical to chRituximab except for the addition of the HD peptide rs-T15) (antibody, human IgG1, kappa)
heavy: not shown
light: QIVLSQSPAILSASPGEKVTMTCRASSSVSYIHWFQQKPGSSPKPWIYATSNLASGVPVRFSGSGSGTSYSLTISRVEAEDAATYYCQQWTSNPPTFGGGTKLEIKRTVAAPSVFIFPPSDEQLKSGTASVVCLLNNFYPREAKVQWKVDNALQSGNSQESVTEQDSKDSTYSLSSTLTLSKADYEKHKVYACEVTHQGLSSPVTKSFNRGEC
